Experimental data from publication PMC11026163, “Structural basis for excitatory neuropeptide signaling” (Nature Structural & Molecular Biology, 2024).
Values joined by “and” are separate entries in the source; they are usually repeats but may differ in a detail not shown here. Equal entries are not always repeated. Non-standard residues stand in square brackets, D forms with d. No end group written: not given here. Cit = NC(=O)NCCC[C@H](N)C(=O)O

Tests used:
[1] = tested on: FaNaC1 G3′S; test: TEVC, diminazene block of sustained FMRFa-gated current at mutant channel; format: cell-based, Malacoceros fuliginosus; conditions: block of Isus
Protocol: (§1) Fig. 5 FaNaC1/FMRFa/diminazene structure. a, Pore-lining residues in FaNaC1/FMRFa/diminazene structure (left) and pore radius for all four cryo-EM structures calculated in HOLE[53] (right). b, Top, diminazene structure (ionized at pH 7.4). Middle, peak (Ipeak) and sustained (Isus) FMRFa (3 µM)-gated currents through FaNaC1 in the absence and presence of diminazene (10 μM). Bottom, % block (individual data points, n = 3 oocytes at −60 mV, 4 at 10 mV, 3 at 80 mV; and means, bars) of Isus by diminazene at three different membrane potentials. c, Magnified view of FaNaC1/FMRFa/diminazene model, showing nonprotein cryo-EM density in the pore as mesh. d, Concentration-dependent block of Isus by diminazene at WT and mutant channels (mean ± s.e.m., n = 4 oocytes, except D0′N—see Source data). e, FMRFa-gated current amplitude (Vm = −60 mV; individual data points (n = 5) and means, bars) in extracellular solutions based on different cations. Source data
(§2) Given the drug’s effect on pore radius and its voltage-dependent block of currents, we hypothesized that this nonprotein density derives from partially unresolved or low occupancy diminazene molecules. […] We also generated mutant G2′S channels but saw no currents in oocytes injected with these RNAs (n = 8 over two batches of ooyctes). An additional helical turn higher, the S-1′A substitution caused constitutive current, as expected for mutating the TM2a-1′ degenerin position, but had no effect on diminazene potency (Fig. 5d and Extended Data Fig. 9c). […] Thus, we interpret our FaNaC1/FMRFa/diminazene structure as an FMRFa-gated, diminazene-blocked, open-channel conformation.
(§3) FaNaC1 in a modified pSP64 plasmid vector (Supplementary Notes) was used for mutagenesis and messenger RNA preparation and injection into stage V/VI Xenopus laevis oocytes (EcoCyte Bioscience). Mutants were generated by partly overlapping primers (Supplementary Table 1 and ref. [75]), and channel-coding inserts were Sanger sequenced. […] NaCl was replaced with KCl, NH4Cl or H3CNH3Cl (Merck) where appropriate.
(§4) Oocytes were clamped at −60 mV unless otherwise indicated, and currents were measured by two-electrode voltage clamp, as previously described, using a Warner OC-725C amplifier and HEKA LIH8 + 8 interface with Patchmaster 2x90.4 software (HEKA), sampling at 500 Hz or 1 kHz and filtering at 100 Hz. Current amplitudes were measured in Clampfit v.11 (Molecular Devices). N values refer to experiments performed on different oocytes. Data were analyzed in Prism v.9 (GraphPad) and fit with Prism v.9 variable-slope four-parameter nonlinear regression, yielding half-maximal effective activating/inhibiting concentrations (EC50/IC50). In establishing EC50 values for activation by FMRFa, we waited 4 min between applications of increasing concentrations. […]

[2] = tested on: FaNaC1 G6′S; test: as above; format: cell-based, Malacoceros fuliginosus; conditions: block of Isus
Protocol: as §1, §2, §3, §4

[3] = tested on: FaNaC1 S-1′A; test: as above; format: cell-based, Malacoceros fuliginosus; conditions: block of Isus
Protocol: as §1, §2, §3, §4

[4] = tested on: FaNaC1 D0′N; test: as above; format: cell-based, Malacoceros fuliginosus; conditions: block of Isus
Protocol: as §1, §2, §3, §4

[5] = tested on: ENaCs; conditions: ENaCs possess asparagine at the 0′ position; cited from earlier work
From the text: Given the drug’s effect on pore radius and its voltage-dependent block of currents, we hypothesized that this nonprotein density derives from partially unresolved or low occupancy diminazene molecules. […] We ...

[6] = tested on: FaNaC1 H297S; test: TEVC, diminazene block of constitutive current of H297S channels; format: cell-based, Malacoceros fuliginosus; conditions: 30 µM diminazene, mean ± s.e.m., n = 7
From the text: (§5) Fig. 6 FaNaC1 gating mechanism. a, Overlay of ligand-free FaNaC1 (blue) and FaNaC1/FMRFa/diminazene (orange) structures. Adjacent subunit in darker shades. b, Magnified views of boxed regions, left to right: ligand binding site; palm domain; β-turn–TM2a/TM1 interactions. Selected side chains shown as sticks and labeled. c, Illustration of one subunit (left subunit in a) moving during gating: peripheral rolling, internal stasis and β-turn moving outward to allow channel expansion. α6 helix from adjacent subunit in gray. d, Top left and bottom, example recordings from oocytes expressing mutant H297S FaNaC1 channels (scale bars, x, 30 s; y, 1 µA). Top right, mean (± s.e.m., n = 5 oocytes) responses of H297S channels to FMRFa and ASSFVRIa normalized to maximum FMRFa-gated current (I/Imax-FMRFa), compared to WT channels. […]
as §4, with “N values refer to experiments performed on different oocytes.” left out, “(EC50/IC50).” for “(EC50/IC50). In establishing EC50 values for activation by FMRFa, we waited 4 min between applications of increasing concentrations.”

[7] = target: T1, FaNaC1 (WT) (Malacoceros fuliginosus, UniProt A0AAN0NP85); test: TEVC, diminazene block of peak and sustained FMRFa-gated current, WT FaNaC1 in oocytes; format: cell-based; conditions: per oocyte
T1 sequence (A0AAN0NP85 1-600): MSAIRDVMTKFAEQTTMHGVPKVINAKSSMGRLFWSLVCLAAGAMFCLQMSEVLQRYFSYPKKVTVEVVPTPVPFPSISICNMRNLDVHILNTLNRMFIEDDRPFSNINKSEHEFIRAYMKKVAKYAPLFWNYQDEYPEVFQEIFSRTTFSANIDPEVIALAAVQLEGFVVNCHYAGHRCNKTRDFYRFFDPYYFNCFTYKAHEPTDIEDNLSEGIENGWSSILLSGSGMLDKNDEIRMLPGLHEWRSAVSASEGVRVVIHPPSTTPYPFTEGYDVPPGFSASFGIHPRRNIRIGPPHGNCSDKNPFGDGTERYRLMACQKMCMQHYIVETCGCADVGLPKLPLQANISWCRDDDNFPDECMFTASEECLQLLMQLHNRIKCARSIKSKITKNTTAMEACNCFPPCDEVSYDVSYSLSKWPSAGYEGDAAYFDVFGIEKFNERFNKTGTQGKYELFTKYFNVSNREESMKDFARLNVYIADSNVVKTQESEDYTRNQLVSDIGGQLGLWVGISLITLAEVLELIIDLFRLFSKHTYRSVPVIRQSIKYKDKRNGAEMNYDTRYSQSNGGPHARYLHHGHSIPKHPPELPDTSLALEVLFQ
Protocol: as §3
(§6) Current amplitudes were measured in Clampfit v.11 (Molecular Devices). N values refer to experiments performed on different oocytes. Data were analyzed in Prism v.9 (GraphPad) and fit with Prism v.9 variable-slope four-parameter nonlinear regression, yielding half-maximal effective activating/inhibiting concentrations (EC50/IC50). […] Mean ± standard error of the mean (s.e.m.) EC50/IC50 from fits to individual cells reported in Main. Currents shown in figures are further filtered (20 Hz) and decimated (50×) in Clampfit 11 for smaller file size.
(a) 1 μM FMRF-gated currents with and without diminazene in an oocyte expressing wildtype (WT) FaNaC1. […] Scale bars: x, 5 s; y, 0.2 µA. (b) Mean ± SEM normalized peak (n = 4 oocytes) and sustained (n = 7 oocytes) current amplitude in the presence of increasing concentrations of diminazene. […] Scale bars: x, 5 s; y, 0.1 µA. Source data

[8] = target: T1, FaNaC1 (WT); test: Two-electrode voltage clamp, peptide-gated currents in Xenopus laevis oocytes expressing WT FaNaC1; format: cell-based
Protocol: as §3, §6

[9] = target: FMRFamide-gated sodium channel 1 (FaNaC1) from Malacoceros fuliginosus (Malacoceros fuliginosus); test: cryo-EM structure; FaNaC1 in POPC:POPG (3:1) lipid nanodiscs, 20 mM HEPES pH 7.6, 150 mM NaCl; alone, or with FMRFa 30 µM or ASSFVRIa 100 µM added directly before freezing; C3 symmetry imposed
[10] = tested on: FaNaC1 H297S; test: TEVC, FMRFa- and ASSFVRIa-gated currents at H297S channels; format: cell-based, Malacoceros fuliginosus; conditions: normalized to maximum FMRFa-gated current
From the text: as §5
as §4, with “N values refer to experiments performed on different oocytes.” left out, “(EC50/IC50).” for “(EC50/IC50). In establishing EC50 values for activation by FMRFa, we waited 4 min between applications of increasing concentrations.”

[11] = target: FMRFamide-gated sodium channel 1 (FaNaC1) from Malacoceros fuliginosus (Malacoceros fuliginosus)
[12] = target: FaNaC1 F129C (Malacoceros fuliginosus)
[13] = target: FaNaC1 F97C (Malacoceros fuliginosus)
[14] = target: FaNaC1 M238C (Malacoceros fuliginosus)
[15] = target: FaNaC1 F97C modified by MTSET (Malacoceros fuliginosus)
[16] = target: FaNaC1 M238C modified by MTSET (Malacoceros fuliginosus)
[17] = target: FaNaC1 F129C modified by MTSET (Malacoceros fuliginosus)
[18] = target: FaNaC1 F129A (Malacoceros fuliginosus)
[19] = target: FaNaC1 V122A (Malacoceros fuliginosus)
[20] = target: FMRFamide-gated sodium channel 1 (FaNaC1) from Malacoceros fuliginosus (Malacoceros fuliginosus); remark: listed apart in the source
[21] = target: FaNaC1 F129Q (Malacoceros fuliginosus)
[22] = target: FaNaC1 F129L (Malacoceros fuliginosus)
[23] = [Diminazene] 1e-7 M, 1 μM FMRF-gated current

N=C(N)c1ccc(/N=N/Nc2ccc(C(=N)N)cc2)cc1 [diminazene]
effect of mutation on diminazene potency [1]: modestly reduced
effect of mutation on diminazene potency [2]: drastically reduced
effect of mutation on diminazene potency [3]: no effect
effect of mutation on diminazene potency [4]: decreased diminazene potency approximately tenfold
sensitivity to diminazene [5]: insensitive
block of constitutive current [6]: 76 ± 5%
Remaining peak current [7, 23]: 0.9158 and 0.934 and 1.161 and 1.255
Remaining sustained current [7, 23]: 0.6522 and 0.7647 and 0.9533 and 0.9846 and 0.7407 and 0.6744
Remaining peak current ([7]; [Diminazene] 1e-6 M): 0.5053 and 0.783 and 0.8871 and 0.9636

FVRI–NH2 [FVRIa, four C-terminal residues of ASSFVRIa]
activity compared to parent peptide ASSFVRIa [8]: very similar activity

FMRFamide-gated sodium channel 1 (FaNaC1) from Malacoceros fuliginosus (receptor)
stoichiometry N [9]: 3

ASSFVRI-NH2 [ASSFVRIa, product of the FVRIamide precursor in several annelids]
relative efficacy at H297S compared to WT [10]: increased
agonist type [8]: partial agonist

FMRA–NH2 [FMRAa, FMRFa analog lacking the C-terminal F4 side chain]
activation of current ([8]; 100 μM peptide): barely activating detectable currents

AMRF-NH2 [AMRF-NH2]
EC50 of peptide-gated current, two-electrode voltage clamp, Xenopus oocytes expressing WT FaNaC1 [11]: 300 nM

B1: FM(citrulline)F-NH2 (peptide)
peptide: FM[Cit]F-NH2
modifications: N-terminus assumed
SMILES: CSCC[C@H](NC(=O)[C@@H](N)Cc1ccccc1)C(=O)N[C@@H](CCCNC(N)=O)C(=O)N[C@@H](Cc1ccccc1)C(N)=O
EC50 of peptide-gated current, two-electrode voltage clamp, Xenopus oocytes expressing WT FaNaC1 [11]: 690 nM

H-FMRF-NH2 [FMRFamide (H-Phe-Met-Arg-Phe-NH2)]
EC50 of FMRFa-gated current without MTSET, two-electrode voltage clamp, Xenopus oocytes [12]: 5000 nM
EC50 of FMRFa-gated current without MTSET, two-electrode voltage clamp, Xenopus oocytes [13]: 250 nM
EC50 of FMRFa-gated current without MTSET, two-electrode voltage clamp, Xenopus oocytes [14]: 140 nM
EC50 of FMRFa-gated current with MTSET, two-electrode voltage clamp, Xenopus oocytes [15]: 4000 nM
EC50 of FMRFa-gated current with MTSET, two-electrode voltage clamp, Xenopus oocytes [16]: 580 nM
EC50 of FMRFa-gated current with MTSET, two-electrode voltage clamp, Xenopus oocytes [17]: > 10000 nM
EC50 of FMRFa-gated current, two-electrode voltage clamp, Xenopus oocytes [18]: 18000 nM
EC50 of FMRFa-gated current, two-electrode voltage clamp, Xenopus oocytes (20-fold increase in potency) [19]: 40 nM
EC50 of FMRFa-gated current, two-electrode voltage clamp, Xenopus oocytes expressing WT FaNaC1 [20]: 850 nM
fold decrease of FMRFa potency (EC50 of gated current) against WT, two-electrode voltage clamp, Xenopus oocytes [21]: 100 fold
EC50 of FMRFa-gated current, two-electrode voltage clamp, Xenopus oocytes [22]: 9000 nM

FMQF-NH2 [FMQF-NH2]
EC50 of peptide-gated current, two-electrode voltage clamp, Xenopus oocytes expressing WT FaNaC1 [11]: 4500 nM
